Source: patent US20190359687A1 (Bayer, published 2019)
Positions count from the first letter of the chain named. In names and notes the source's numbering stands.

B1: TPP-7782 scFv with C-terminal 6xHIS tag (scFv)
scFv: DIQLTQSPSFLSASVGDRVTITCRASSSVRYIYWFQQKPGKAPKLLIYATSFRQSGVPSRFSGSGSGTEYTLTISSLQPEDFATYYCHQRNSFPYTFGQGTKLEIKGGGGSGGGGSGGGGSGGGGSEVQLVQSGAEVKKPGASVKVSCKASGYTFTTYTIHWVRQAPGQGLEWMGYINPSSGYTRYNPKFKGRVTMTRDKSTSTAYMELRSLRSDDTAVYYCQTGTRDYWGQGTTVTVSSHHHHHH
B2: TPP-7797 scFv with C-terminal 6xHIS tag (scFv)
scFv: B1 scFv with Q223W, T226R
B3: TPP-7794 scFv with C-terminal 6xHIS tag (scFv)
scFv: B1 scFv with T159A, G192H, Q223W
B4: TPP-7790 scFv with C-terminal 6xHIS tag (scFv)
scFv: B1 scFv with R53L, T159A, G192H, Q223W
B5: TPP-7793 scFv with C-terminal 6xHIS tag (scFv)
scFv: B1 scFv with R30S, F52T, R53L, T157R, Q223W
B6: TPP-7783 scFv with C-terminal 6xHIS tag (scFv)
scFv: B1 scFv with Q54R, T159A, G192H, Q223W
B7: TPP-7795 scFv with C-terminal 6xHIS tag (scFv)
scFv: B1 scFv with R30S, R53L, S180K, Y183W
B8: TPP-5348 (Fab, V domains shown)
VH: EVQLVQSGAEVKKPGASVKVSCKASGYTFTTYTIHWVRQAPGQGLEWIGYINPSSDYTRYNPKFKDRVTLTTDKSTSTAYMELRSLRSDDTAVYYCQTGTRDYWGQGTTVTVSS
VL: DIQLTQSPSFLSASVGDRVTITCSAASSVSYIYWFQQKPGKAPKLLIYATSTLPSGVPSRFSGSGSGTEYTLTISSLQPEDFATYYCHQRNSFPFTFGQGTKLEIKR
notes: also called VL: (S49A)
B9: Fab papain 6C12-24 (Fab, V domains shown)
VH: B8 VH
VL: DIQLTQSPSFLSASVGDRVTITCSAASSVSYIYWFQQKPGKAPKLLIYSTSTLPSGVPSRFSGSGSGTEYTLTISSLQPEDFATYYCHQRNSFPFTFGQGTKLEIK
notes: also called parent: Fab 6C12-24
B10: TPP-5350 (Fab, V domains shown)
VH: B8 VH
VL: B8 VL with A49S, P54Q
notes: also called VL: (P54Q)

Tests used:
[1] = molecular target: T1, human glycophorin A on human red blood cells or red blood cell membranes (human, UniProt P02724 20-150); assay: scFv 7 ug/ml on intact human RBC, unbound scFv by ELISA; pre-dilution
T1 construct: whole, on cells; also called hRBC; human RBC membranes
T1 sequence (looked up): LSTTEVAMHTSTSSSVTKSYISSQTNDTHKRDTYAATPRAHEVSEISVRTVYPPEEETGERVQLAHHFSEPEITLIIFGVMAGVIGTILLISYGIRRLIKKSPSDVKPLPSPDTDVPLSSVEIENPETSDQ
Procedure: (§1) RBC diluted to 1/10th of normal hematocrit were incubated with the set of “Top 10” purified scFv antibodies at a final concentration of 7 ug/ml for 1 hour at room temperature on a rotating shaker after which a sample was taken and the RBC were pelleted by centrifugation and the supernatant was collected. The remaining RBC suspension was diluted 200-fold in PBS buffer and incubated for a total of 2 hours at room temperature on a rotating shaker and samples were removed at 0, 5 min, 20 min, 1 h and 2 h and the RBC pelleted and the supernatant collected. […] The percentage that remains bound after dilution is an indication of the overall strength of the binding to human RBC.

[2] = molecular target: T1, human glycophorin A on human red blood …; assay: scFv on intact human RBC, unbound scFv by ELISA; 0 min after 200-fold dilution
Procedure: as §1

[3] = molecular target: T1, human glycophorin A on human red blood …; assay: scFv on intact human RBC, unbound scFv by ELISA; 5 min after 200-fold dilution
Procedure: as §1

[4] = molecular target: T1, human glycophorin A on human red blood …; assay: scFv on intact human RBC, unbound scFv by ELISA; 20 min after 200-fold dilution
Procedure: as §1

[5] = molecular target: T1, human glycophorin A on human red blood …; assay: scFv on intact human RBC, unbound scFv by ELISA; 60 min after 200-fold dilution
Procedure: as §1

[6] = molecular target: T1, human glycophorin A on human red blood …; assay: scFv on intact human RBC, unbound scFv by ELISA; 120 min after 200-fold dilution
Procedure: as §1

[7] = molecular target: T2, purified human glycophorin A protein (Sigma, cat # G5017) (human, UniProt P02724 20-150); assay: ELISA, native hGPA
T2 construct: mature; also called Sigma hGPA; Sigma GPA
T2 sequence (looked up): T1 sequence (looked up)

[8] = molecular target: T3, human glycophorin A in the red blood cell membrane (human, UniProt P02724 20-150); assay: ELISA, human RBC membranes;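 also: antibodies bound to isolated human red blood cell membrane ghosts coated on 96-well plates, tested 1.5 h at room temperature, bound antibody quantified with a detection antibody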
T3 construct: whole, on cells; used for intact RBC, isolated RBC membranes and transfected cells; the assay field tells which; also called GPA; hGPA
T3 sequence (looked up): T1 sequence (looked up)
Procedure: In order to evaluate binding of antibodies to GPA in the native context of the red blood cell membrane we made use of isolated red blood cell membranes, also called red blood cells ghosts. These membranes are prepared by first isolating red blood cells from citrated whole blood. Citrated whole blood is layered on to Ficol and centrifuged at low speed for 20 minutes to pellet the red blood cells. The supernatant containing plasma and other blood cells is discarded and the red blood cell pellet is subsequently washed 3 times in 10 cell volumes of phosphate buffered saline (PBS). A 10 ml pellet of purified red blood cells is resuspended in 30 ml of cold low osmorality 20 mM phosphate buffer (pH7.4) and incubated for 30 mins to break open the RBC. After Centrifugation at 10,000 rpm for 30 min at 5° C. the hemoglobin containing supernatant is discarded. To the membrane pellet another 30 ml of 20 mM phosphate buffer is added and the sample centrifuged again at 10,000 rpm for 30 min at 5° C. to pellet the membrane fraction. This wash and centrifugation step is repeated another 4 times. The red blood cell membranes are then resuspended in 20 mL of PBS to achieve an equivalent of approximately 2.5E9 cells/mL and stored frozen at −20° C. Binding of antibodies to RBC ghost can be measured by ELISA in which the RBC ghost suspension (5×10⁶ in 100 ul PBS) was added to each well of flat bottom 96-well ELISA microtiter plates (2HB, Immunolon) and the plates incubated overnight at 4° C. The plates were blocked with Starting blocking buffer (Thermo Fisher) for 2 hours at room temperature (RT). Antibodies or other test molecules were added to each well and incubated for 1.5 hours at RT. After 4 washes 100 ul of an appropriate detection antibody was added to each well and incubated for 1 hour at RT. After 4 washes the detection antibody was measured using appropriate detection reagents.

[9] = molecular target: T4, recombinant human GPA ectodomain (human, UniProt P02724 20-91); assay: ELISA, rec hGPA ectodomain
T4 construct: also called recombinant hGPA ECD; recGPA
T4 sequence: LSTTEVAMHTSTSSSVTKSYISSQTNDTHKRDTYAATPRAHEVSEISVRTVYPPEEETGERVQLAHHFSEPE

[10] = molecular target: T3, human glycophorin A in the red blood …; assay: SPR (Biacore), single cycle kinetics, human RBC membranes on L1 sensor, Fab flowed over
Procedure: Kinetic analysis of the antibody binding to human red blood cell membranes was also performed using surface plasmon resonance (SPR) using a Biacore instrument. In this assay membranes prepared from human red blood cells were attached to a L1 sensor matrix and antibodies were flowed over the RBC membranes.

Binder | percentage of input scFv antibody bound [1] [%] | percentage of input scFv antibody bound [2] [%] | percentage of input scFv antibody bound [3] [%] | percentage of input scFv antibody bound [4] [%] | percentage of input scFv antibody bound [5] [%] | percentage of input scFv antibody bound [6] [%] | binding by ELISA relative to parental [7] | binding by ELISA relative to parental [8] | binding by ELISA relative to parental [9] | Kd [10] [nM] | koff [10] [s⁻¹] | kon [10] [M⁻¹ s⁻¹]
B1 | 92 | 92 | 91 | 87 | 89 | 85 |  |  |  |  |  | 
B2 | 98 | 98 | 98 | 98 | 99 | 97 |  |  |  |  |  | 
B3 | 85 | 85 | 85 | 85 | 85 | 85 |  |  |  |  |  | 
B4 | 99 | 99 | 99 | 99 | 94 | 87 |  |  |  |  |  | 
B5 | 92 | 92 | 92 | 84 | 81 | 79 |  |  |  |  |  | 
B6 | 94 | 94 | 94 | 94 | 94 | 94 |  |  |  |  |  | 
B7 | 100 | 100 | 85 | 82 | 84 | 80 |  |  |  |  |  | 
B8 |  |  |  |  |  |  | 1.62 | 1.76 | 1.5 | 25 | 0.019 | 740000
B9 |  |  |  |  |  |  |  |  |  | 130 | 0.048 | 370000
B10 |  |  |  |  |  |  | 1.45 | 1.64 | 1.7 | 34 | 0.021 | 610000
